Ends that are not written are not given here. chelating agent A = 3,5-di-(1-trimethylammoniumacetyl)-4-thiosemicarbazidobenzoic acid, dichloride salt
Columns and labels:
activated platelets = test: Aggregometer assay; assay type: cell-based
clot [1] = test: Gamma camera thrombus imaging in rabbits; assay type: in vivo, New Zealand White rabbits; settings: FIG. 8
Method: (§1) The specificity of uptake of Tc-99m labeled peptide […]-chelating agent A conjugate into rabbit thrombi was determined by directly comparing tissue uptake and images obtained in animals with an induced thrombus to those receiving a sham operation without induced thrombus.
Two groups of 3 rabbits were used. All animals were subjected to surgery to expose the superficial jugular vein as described in detail below. In the first group of animals, the jugular veins were clamped off and a silk thread was inserted into the jugular veins. These veins also received an injection of 10 units of bovine thrombin in 0.1 ml isotonic saline directly into the vein. […]
The peptide-chelating agent conjugate prepared as in Section 9, supra, was radiolabeled with Tc-99m as follows: Tc-99m was eluted from a molybdenum generator and adjusted to 40 mCi/ml with isotonic saline. […] After this incubation period the material was drawn into an appropriately labelled 5 ml syringe and a sample was analyzed by instant thin layer chromatography (ITLC) to determine radiochemical purity as described in Section 9, supra. This material was acceptable for injection into rabbits only if the radiochemical purity was ≥95% and the amount of radioactivity available for injection was within 20% of that required by this protocol (e.g., 4.8-7.3 mCi). […]

clot [2] = test: Biodistribution by dissection in rabbits with induced thrombus; assay type: in vivo, New Zealand White rabbits; settings: for 99M Tc / % ID/G (percent of injected dose per gram of tissue) / TISS:BLD / TISS:MUSC: 4 h after injection
Method: as §1
Two groups of 3 rabbits were used. All animals were subjected to surgery to expose the superficial jugular vein as described in detail below. In the first group of animals, the jugular veins were clamped off and a silk thread was inserted into the jugular veins. These veins also received an injection of 10 units of bovine thrombin in 0.1 ml isotonic saline directly into the vein. The second (sham control) group of animals was subjected to the same surgical procedures as the experimental group except that no silk was inserted into the veins of these animals and the veins received an injection of 0.1 ml isotonic saline only. Due to logistical difficulties in handling six animals at one time, the experiment was conducted in three parts, each part consisting of one sham and one thrombus-induced animal done in parallel on each of 3 days. Specific pathogen-free New Zealand White rabbits (2-2.6 kg) were used.
The model system of Collen et al. (1983, J. Clin. Invest. 71:368-376) was used (with minor modifications described below) to induce experimental thrombi in rabbits. The animals were anesthetized by intramuscular injection of 40 mg/kg ketamine-HC1 and 4 mg/kg acepromazine maleate. Just prior to surgery, the animals received 10 mg/kg sodium pentobarbital, which was also administered as needed during the course of the surgery. The neck area was shaved and swabbed with disinfectant. The jugular vein was exposed by making about a 5 cm paramedial incision, the vein was freed from tissues over about a 4 cm distance (up to the main bifurcation of the facial vein) and the side branches of the jugular were ligated. A 1-inch segment was clamped off with hemostats and, in the experimental (group 1) animals, a silk thread was placed longitudinally inside the vein and was tied off at each end. No suture was placed in the veins of sham control (group 2) animals. Ten (10) units of bovine thrombin in 0.1 ml of isotonic saline (or saline alone in sham control animals) was injected into the clamped vein segment using a 27 gauge needle. Thirty minutes later, the animals were given an intravenous injection (in the contralateral marginal ear vein) of a mixture of 2-7 μCi of Tc-99m labelled peptide-chelating agent conjugate.
The peptide-chelating agent conjugate prepared as in Section 9, supra, was radiolabeled with Tc-99m as follows: Tc-99m was eluted from a molybdenum generator and adjusted to 40 mCi/ml with isotonic saline. Fifty (50) mCi of this preparation was transferred to a Glucoscan vial (Dupont, Billerica, MA) and mixed. Six (6) mCi of Tc-99m/glucoscan mixture was then added to a vial containing 50 μg of the peptide-chelating agent conjugate and incubated for 1 h at room temperature. After this incubation period the material was drawn into an appropriately labelled 5 ml syringe and a sample was analyzed by instant thin layer chromatography (ITLC) to determine radiochemical purity as described in Section 9, supra. This material was acceptable for injection into rabbits only if the radiochemical purity was ≥95% and the amount of radioactivity available for injection was within 20% of that required by this protocol (e.g., 4.8-7.3 mCi).
All animals were dissected 4 h (240 min) after injection. A 3 ml blood sample was drawn, after which the animals were euthanized with an i.v. injection of T-61 euthanasia solution (American Hoechst, Sommerville, N.J.). The vein segment was surgically removed and the thrombus therein (if any) was isolated from the vein. A segment of the contralateral vein was also removed and a sample of muscle was obtained from an area of the neck distal to the surgical field. […]

Substance | IC50 (activated platelets) [µM] | clot-binding potency relative to the native peptide (activated platelets; relative to native peptide) | localization to clot in gamma camera imaging (clot [1]; 2 hours and 4 hours) | blood pool accumulation, area of the head (clot [1]; gamma camera image) | 99M Tc (clot [2]; Blood) | % ID/G (percent of injected dose per gram of tissue) (clot [2]; Blood) [% ID/G] | 99M Tc (clot [2]; Clot (Target)) | % ID/G (percent of injected dose per gram of tissue) (clot [2]; Clot (Target)) [% ID/G] | TISS:BLD (clot [2]; Clot (Target)) | TISS:MUSC (clot [2]; Clot (Target)) | 99M Tc (clot [2]; Muscle) | % ID/G (percent of injected dose per gram of tissue) (clot [2]; Muscle) [% ID/G] | 99M Tc (clot [2]; Vessel) | % ID/G (percent of injected dose per gram of tissue) (clot [2]; Vessel) [% ID/G] | TISS:BLD (clot [2]; Vessel) | TISS:MUSC (clot [2]; Vessel) | clot % ID/G relative to blood (clot [2]; clot vs blood) [fold] | clot % ID/G relative to the blood vessel (clot [2]; clot vs blood vessel) [fold] | % ID/G for the clot (clot [2]; clot, percent of injected dose per gram of tissue) [%]
Chelating Agent A-NH-SYRGDVRGDF: chelating agent A coupled with SYRGDVRGDF-NH2 peptide ({chelating agent A}-SYRGDVRGDF-NH2) | 19.3 | full or even enhanced clot-binding potency | – | – | – | – | – | – | – | – | – | – | – | – | – | – | – | – | –
SYRGDVRGDF [reference compound] | 28.8 | – | – | – | – | – | – | – | – | – | – | – | – | – | – | – | – | – | –
Tc-99m-labeled SYRGDVRGDF-chelating agent A conjugate: peptide-chelating agent conjugate prepared as in Section 9, radiolabeled with Tc-99m (SYRGDVRGDF-NH2; not fully specified (N-terminus); also: chelating agent A conjugate, site not given here, Tc-99m labelled (metal complex)) | – | – | localization of Tc-99m-labeled SYRGDVRGDF-chelating agent A conjugate to a clot | blood pool accumulation of peptide-chelating agent A, which is non-specific | 318229 | 0.0399 | 94319 | 0.3312 | 28.30 | 27.83 | 22369 | 0.0119 | 95629 | 0.0870 | 2.18 | 7.28 | 8 | 4 | 0.33
